In this assay the target is microtubules (tubulin).

These results are taken from article PMC5432123.

B1: UNC-104 (1-371 a.a), truncated version (domain or fragment)
chain: MSSVKVAVRVRPFNQREISNTSKCVLQVNGNTTTINGHSINKENFSFNFDHSYWSFARNDPHFITQKQVYEELGVEMLEHAFEGYNVCIFAYGQTGSGKSYTMMGKANDPDEMGIIPRLCNDLFARIDNNNDKDVQYSVEVSYMEIYCERVKDLLNPNSGGNLRVREHPLLGPYVDDLTKMAVCSYHDICNLMDEGNKARTVAATNMNSTSSRSHAVFTIVLTQKRHCADSNLDTEKHSKISLVDLAGSERANSTGAEGQRLKEGANINKSLTTLGLVISKLAEESTKKKKSNKGVIPYRDSVLTWLLRENLGGNSKTAMLAALSPADINFDETLSTLRYADRAKQIVCQAVVNEDPNAKLIRELNEEVIK
As to B1, the in vitro MT gliding assay, speed of MT gliding (n = 25) was determined as 1.68 mμ/sec.

B2: UNC-104 (1-371 a.a) V6I, truncated version (domain or fragment)
chain: MSSVKIAVRVRPFNQREISNTSKCVLQVNGNTTTINGHSINKENFSFNFDHSYWSFARNDPHFITQKQVYEELGVEMLEHAFEGYNVCIFAYGQTGSGKSYTMMGKANDPDEMGIIPRLCNDLFARIDNNNDKDVQYSVEVSYMEIYCERVKDLLNPNSGGNLRVREHPLLGPYVDDLTKMAVCSYHDICNLMDEGNKARTVAATNMNSTSSRSHAVFTIVLTQKRHCADSNLDTEKHSKISLVDLAGSERANSTGAEGQRLKEGANINKSLTTLGLVISKLAEESTKKKKSNKGVIPYRDSVLTWLLRENLGGNSKTAMLAALSPADINFDETLSTLRYADRAKQIVCQAVVNEDPNAKLIRELNEEVIK
Molecule B2 came in with an in vitro MT gliding assay, speed of MT gliding (n = 25) of 1.35 μm/sec.
